Consider 37 molecules from patent publication US20230365662A1.

Positions count from the first letter of the chain named. Names and notes keep the numbering of the source. Values joined by “and” are separate entries in the source; they are usually repeats but may differ in a detail not shown here. Identical values can stand only once.

The assay has as its target HRgpA-6H (Porphyromonas gingivalis) (UniProt P28784). Description: ELISA, FASEBA Fab on coated HRgpA-6H. (In an ELISA, binding on a coated surface is turned into a signal by an enzyme label.)
Chain of UniProt P28784 (P28784 228-991): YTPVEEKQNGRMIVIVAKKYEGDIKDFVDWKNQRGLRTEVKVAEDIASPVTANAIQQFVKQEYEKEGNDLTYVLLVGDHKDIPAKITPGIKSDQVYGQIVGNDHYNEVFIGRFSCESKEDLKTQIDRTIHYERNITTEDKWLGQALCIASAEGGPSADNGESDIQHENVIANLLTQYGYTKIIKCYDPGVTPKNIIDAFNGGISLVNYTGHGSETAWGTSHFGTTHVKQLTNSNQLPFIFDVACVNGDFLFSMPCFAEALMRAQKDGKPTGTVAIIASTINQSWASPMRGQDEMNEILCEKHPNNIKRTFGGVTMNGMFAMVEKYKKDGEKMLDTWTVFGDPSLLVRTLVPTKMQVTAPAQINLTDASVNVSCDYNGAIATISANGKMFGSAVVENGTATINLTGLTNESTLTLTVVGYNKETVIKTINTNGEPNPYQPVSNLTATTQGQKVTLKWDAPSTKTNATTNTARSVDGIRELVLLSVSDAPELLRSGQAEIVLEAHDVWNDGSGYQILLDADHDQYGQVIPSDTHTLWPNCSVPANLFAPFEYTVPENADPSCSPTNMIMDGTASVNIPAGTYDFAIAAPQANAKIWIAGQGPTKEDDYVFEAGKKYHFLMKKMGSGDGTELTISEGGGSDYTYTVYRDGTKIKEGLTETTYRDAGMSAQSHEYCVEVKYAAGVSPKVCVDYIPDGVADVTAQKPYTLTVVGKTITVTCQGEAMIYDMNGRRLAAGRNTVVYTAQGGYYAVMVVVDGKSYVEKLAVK

B1: KB001 mouse Fab VL T24M (Fab, V domains shown)
VH: EVQLKQSGPGLVAPSQSLSITCTVSGFSLSIYSVHWVRQPPGKGLEWLGMIWGGGSSDYNSALKSRLSISKDNSKSQVFLKMNSLQTDDTAMYYCARNGNFYAMDYWGQGTSVTVSS
VL: QIVLTQSPAIMSASLGERVTMTCMASSSVSSSFLHWYQQKPGSSPQLWIYSTSNLASGVPARFSGSGSGTSYSLTISSMEAEDAATYYCHQYHHSPYIYTFGGGTKLEIK
Consider B1, for which the OD450nm was 0.797 and 0.75; the Ratio OD(Variant)/OD(WT) is 1.04 and 0.975.

B2: KB001 mouse Fab VL S53N (Fab, V domains shown)
VH: B1 VH
VL: B1 VL with M24T, S53N
Consider B2, for which the OD450nm is 0.838 and 0.707; the Ratio OD(Variant)/OD(WT) is 1.06 and 0.898.

B3: KB001 mouse Fab VL T52S (Fab, V domains shown)
VH: B1 VH
VL: B1 VL with M24T, T52S
In the case of B3, the OD450nm was 0.833 and the Ratio OD(Variant)/OD(WT) came to 1.06.

B4: KB001 mouse Fab VL L55P (Fab, V domains shown)
VH: B1 VH
VL: B1 VL with M24T, L55P
B4: the OD450nm was 0.827 and 0.764 and 0.724; the Ratio OD(Variant)/OD(WT) was 1.06 and 0.975 and 0.924.

B5: KB001 mouse Fab VL S53K (Fab, V domains shown)
VH: B1 VH
VL: B1 VL with M24T, S53K
For the molecule B5, the OD450nm turned out to be 0.841 and the Ratio OD(Variant)/OD(WT) was found to be 1.07.

B6: KB001 mouse Fab VL S30F (Fab, V domains shown)
VH: B1 VH
VL: B1 VL with M24T, S30F
In the case of B6, the OD450nm was 0.911 and the Ratio OD(Variant)/OD(WT) amounted to 1.06.

B7: KB001 mouse Fab VL A25F (Fab, V domains shown)
VH: B1 VH
VL: B1 VL with M24T, A25F
With B7, the OD450nm is 0.818 and 0.827 and 0.775; the Ratio OD(Variant)/OD(WT) was 1.04 and 1.06 and 0.99.

B8: KB001 mouse Fab VL S28P (Fab, V domains shown)
VH: B1 VH
VL: B1 VL with M24T, S28P
In the case of B8, the OD450nm was 0.808 and 0.726; the Ratio OD(Variant)/OD(WT) is 1.08 and 0.967.

B9: KB001 mouse Fab VL S27K (Fab, V domains shown)
VH: B1 VH
VL: B1 VL with M24T, S27K
Turning to B9, the OD450nm is 0.783 and 0.745 and 0.697; the Ratio OD(Variant)/OD(WT) was 1.04 and 0.993 and 0.929.

B10: KB001 mouse Fab VL A25T (Fab, V domains shown)
VH: B1 VH
VL: B1 VL with M24T, A25T
B10: the OD450nm was 0.823 and 0.801; the Ratio OD(Variant)/OD(WT) was 1.05 and 1.02.

B11: KB001 mouse Fab VL T24E (Fab, V domains shown)
VH: B1 VH
VL: B1 VL with M24E
Consider B11, for which the OD450nm is 0.852 and 0.81; the Ratio OD(Variant)/OD(WT) is 1.11 and 1.05.

B12: KB001 mouse Fab VL S28K (Fab, V domains shown)
VH: B1 VH
VL: B1 VL with M24T, S28K
As for B12, the OD450nm was 0.801 and the Ratio OD(Variant)/OD(WT) was 1.07.

B13: KB001 mouse Fab VL L55N (Fab, V domains shown)
VH: B1 VH
VL: B1 VL with M24T, L55N
Consider B13, for which the OD450nm is 0.816 and 0.815 and 0.777; the Ratio OD(Variant)/OD(WT) is 1.04 (2×) and 0.992.

B14: KB001 mouse Fab VL S53Q (Fab, V domains shown)
VH: B1 VH
VL: B1 VL with M24T, S53Q
As to B14, the OD450nm was 0.835 and 0.751 and 0.726; the Ratio OD(Variant)/OD(WT) is 1.06 and 0.954 and 0.922.

B15: KB001 mouse Fab VL S31E (Fab, V domains shown)
VH: B1 VH
VL: B1 VL with M24T, S31E
Regarding B15, the OD450nm was 0.903 and 0.798; the Ratio OD(Variant)/OD(WT) is 1.07 and 0.944.

B16: KB001 mouse Fab VL S28W (Fab, V domains shown)
VH: B1 VH
VL: B1 VL with M24T, S28W
As to B16, the OD450nm was 0.817 and 0.745; the Ratio OD(Variant)/OD(WT) is 1.09 and 0.993.

B17: KB001 mouse Fab VL N54R (Fab, V domains shown)
VH: B1 VH
VL: B1 VL with M24T, N54R
In the case of B17, the OD450nm came to 0.876 and the Ratio OD(Variant)/OD(WT) was found to be 1.12.

B18: KB001 mouse Fab VL S57T (Fab, V domains shown)
VH: B1 VH
VL: B1 VL with M24T, S57T
On to B18, for which the OD450nm came to 0.843 and the Ratio OD(Variant)/OD(WT) turned out to be 1.03.

B19: KB001 mouse Fab VL S31F (Fab, V domains shown)
VH: B1 VH
VL: B1 VL with M24T, S31F
B19: the OD450nm is 0.854 and 0.688 and 0.693; the Ratio OD(Variant)/OD(WT) is 1.01 and 0.814 and 0.82.

B20: KB001 mouse Fab VL S31T (Fab, V domains shown)
VH: B1 VH
VL: B1 VL with M24T, S31T
Consider B20, for which the OD450nm is 0.859 and 0.74 and 0.782; the Ratio OD(Variant)/OD(WT) was 1.02 and 0.876 and 0.925.

B21: KB001 mouse Fab VL S57R (Fab, V domains shown)
VH: B1 VH
VL: B1 VL with M24T, S57R
With B21, the OD450nm is 0.845 and 0.849; the Ratio OD(Variant)/OD(WT) came to 1.04.

B22: KB001 mouse Fab VL N54S (Fab, V domains shown)
VH: B1 VH
VL: B1 VL with M24T, N54S
As for B22, the OD450nm was 0.835 and 0.732 and 0.776; the Ratio OD(Variant)/OD(WT) was 1.07 and 0.934 and 0.99.

B23: KB001 mouse Fab VL S26N (Fab, V domains shown)
VH: B1 VH
VL: B1 VL with M24T, S26N
Turning to B23, the OD450nm is 0.823 and 0.749; the Ratio OD(Variant)/OD(WT) was 1.05 and 0.957.

B24: KB001 mouse Fab VL S57N (Fab, V domains shown)
VH: B1 VH
VL: B1 VL with M24T, S57N
As to B24, the OD450nm was determined as 0.857 and the Ratio OD(Variant)/OD(WT) came out at 1.05.

B25: KB001 mouse Fab VL S31P (Fab, V domains shown)
VH: B1 VH
VL: B1 VL with M24T, S31P
Regarding B25, the OD450nm is 0.87 and 0.875 and 0.856; the Ratio OD(Variant)/OD(WT) was 1.03 and 1.04 and 1.01.

B26: KB001 mouse Fab VL S30G (Fab, V domains shown)
VH: B1 VH
VL: B1 VL with M24T, S30G
With B26, the OD450nm is 0.916 and 0.858; the Ratio OD(Variant)/OD(WT) was 1.06 and 0.995.

B27: KB001 mouse Fab VL N54Q (Fab, V domains shown)
VH: B1 VH
VL: B1 VL with M24T, N54Q
As for B27, the OD450nm came to 0.868 and the Ratio OD(Variant)/OD(WT) worked out at 1.11.

B28: KB001 mouse Fab VL S31Y (Fab, V domains shown)
VH: B1 VH
VL: B1 VL with M24T, S31Y
In the case of B28, the OD450nm was 0.849 and the Ratio OD(Variant)/OD(WT) is 1.

B29: KB001 mouse Fab VL S28G (Fab, V domains shown)
VH: B1 VH
VL: B1 VL with M24T, S28G
Consider B29, for which the OD450nm was determined as 0.818 and the Ratio OD(Variant)/OD(WT) is 1.09.

B30: KB001 mouse Fab VL S57E (Fab, V domains shown)
VH: B1 VH
VL: B1 VL with M24T, S57E
In the case of B30, the OD450nm stood at 0.843 and the Ratio OD(Variant)/OD(WT) was 1.03.

B31: KB001 mouse Fab VL T24H (Fab, V domains shown)
VH: B1 VH
VL: B1 VL with M24H
In the case of B31, the OD450nm is 0.795 and the Ratio OD(Variant)/OD(WT) was 1.03.

B32: KB001 mouse Fab VL T52A (Fab, V domains shown)
VH: B1 VH
VL: B1 VL with M24T, T52A
Take B32: the Ratio OD(Variant)/OD(WT) is 1.17 and 1.08 (2×) and 0.993.

B33: KB001 mouse Fab VL S28V (Fab, V domains shown)
VH: B1 VH
VL: B1 VL with M24T, S28V
With B33, the OD450nm was 0.786 and 0.731 and 0.717; the Ratio OD(Variant)/OD(WT) was 1.05 and 0.974 and 0.955.

B34: KB001 mouse Fab VL T24K (Fab, V domains shown)
VH: B1 VH
VL: B1 VL with M24K
B34: the OD450nm was 0.797 and 0.734; the Ratio OD(Variant)/OD(WT) is 1.04 and 0.954.

B35: KB001 mouse Fab VL S51G (Fab, V domains shown)
VH: B1 VH
VL: B1 VL with M24T, S51G
With B35, the OD450nm was 0.915 and 0.777 and 0.851; the Ratio OD(Variant)/OD(WT) was 1.05 and 0.888 and 0.973.

B36: KB001 mouse Fab VL S26D (Fab, V domains shown)
VH: B1 VH
VL: B1 VL with M24T, S26D
Regarding B36, the OD450nm was determined as 0.821 and the Ratio OD(Variant)/OD(WT) was 1.05.

B37: KB001 mouse Fab VL S53H (Fab, V domains shown)
VH: B1 VH
VL: B1 VL with M24T, S53H
In the case of B37, the OD450nm was 0.827 and 0.777; the Ratio OD(Variant)/OD(WT) is 1.05 and 0.987.
